Laboratory results from the supplement of paper PMC12764529.
± gives the half width of the 95% confidence interval.

How the values were obtained:
[1] = folding stability dG unfold from chymotrypsin proteolysis; higher = more stable
Summary of the method: (§1)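 How resistant each design was to proteolysis was captured as K50, inferred by Bayesian fitting of sequencing counts. Unfolding free energy was then derived relative to a sequence-predicted unfolded-state K50 and a shared folded-state K50, per protease or combined. Digestion used trypsin and chymotrypsin at 11 threefold-diluted concentrations plus a no-protease condition, on mini-proteins under 80 residues without cysteine in a PA-tagged cDNA display construct. Designs were kept only when AlphaFold2 dimer inter-PAE was above 15.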

[2] = folding stability dG unfold from trypsin proteolysis; higher = more stable
Summary of the method: as §1

[3] = folding stability dG unfold (combined trypsin and chymotrypsin); higher = more stable
Summary of the method: as §1

Row | Sequence | folding stability dG unfold [1] [kcal/mol] | folding stability dG unfold [2] [kcal/mol] | folding stability dG unfold [3] [kcal/mol]
1 | SAMKPGEKVKIKIITFEKKKDPKTGEEKIEMKEIEIEATITEVEEKDGKVTVKIKIENLPPGAMIIIEKSAG [r14_412_TrROS_Hall] | 3.64 ± 0.087 | 2.05 ± 0.069 | 3.18 ± 0.086
2 | SAMKTEVIEFENFTIVVEELPDGSKKIIILFENPEKAKEALEKNPWIKEFIAEAEKEGYDVELAVVEPESAG [r14_873_TrMRF] | 3.31 ± 0.042 | 3.21 ± 0.12 | 3.21 ± 0.085
3 | SAMKTVTIKVTVEVTKNENGEEVKTVTVTLTLPEEEMTEEQLKELAKELADKLAEENNLTVKITKIEVTSAG [r14_190_TrROS_Hall] | 2.93 ± 0.1 | 3.27 ± 0.19 | 3.08 ± 0.06
4 | SAMKTYTLPNATITVETLPGDNTIVVTVTDPESGKTTTTTVSLDDPSLTIENIIARIEEQIKAGKPVSLSAG [r14_157_JUSTAS] | 2.16 ± 0.054 | 2.33 ± 0.1 | 2.16 ± 0.14
5 | SAMKVEIVEVKKNEDGSEEITIKIVVPDDKDMTPEELAALLKKEFGVDEVKVEVVDENGYKVITITIKRSAG [r14_228_TrROS_Hall] | 3.55 ± 0.15 | 4.03 ± 0.26 | 3.9 ± 0.24
6 | SAMKVTITVTKHTLPDGTPYYTVTITDPSTGKTFSGPVSSEEEAKATAQALADKIEAEGTPVTITFTDDSAG [r14_263_JUSTAS] | 4.03 ± 0.086 | 3.97 ± 0.23 | 3.99 ± 0.14
7 | SAMKWSEVVVSYPSDRWYAEIYTPGPGGELTSVSYREFDSLEELEQWIEEKAPPGEVEVKREPAPPELLSAG [r14_964_JUSTAS] | 0.722 ± 0.094 | 1.17 ± 0.033 | 0.967 ± 0.051
8 | SAMKYTVKLPPGAEPIQPEELAALPYVEVVEVEISDGEDGTRTLTITVSPDVPEENVEKLKEYIEKKLKSAG [r14_421_JUSTAS] | 3.17 ± 0.043 | 2.93 ± 0.077 | 3.12 ± 0.085
9 | SAMKYVELKLTITVPKEKEEEIEKLKKALEKLGAEIVSVEVEYDEETEEVTVTVTIRIENLSEEELKKASAG [r14_956_TrROS_Hall] | 2.97 ± 0.08 | 1.97 ± 0.048 | 2.69 ± 0.086
10 | SAMLRIRVEYEDGRVEDIVIPLAGEDPPFGKEAVEEAAERIAKEVEEKYGLKNVKTEVEAFPVSPEELLSAG [r14_378_TrMRF] | 1.06 ± 0.2 | 0.326 ± 0.096 | 0.818 ± 0.1
11 | SAMMYLIRVTITVKNKETGEEKEIEVEILIEKEEGELTEEEIEELARKLAEELGLEVEEIKIEIEPLPESAG [r14_278_TrROS_Hall] | 5.28 ± 0.16 | 4.34 ± 0.2 | 5.3 ± 0.24
12 | SAMNLRFPLSTEALAKLLENLTPDQTLELRVRIGDRWVRVRLEIHRIERKEDELRVEVTLEVEPLRPEDSAG [r14_335_TrMRF] | 3.34 ± 0.06 | 3.33 ± 0.095 | 3.35 ± 0.19
13 | SAMPKPALTIEIPLPNGQTVRIDVYYDPETGTYTVNVTRTLPNGEPFTRTYTVESPEEAIKNIEVTDFGSAG [r14_749_TrMRF] | 3.18 ± 0.078 | 3.29 ± 0.13 | 3.24 ± 0.12
14 | SAMPLDDLPAEQIRELVRSIMRKHGMPPDNVEVDVEVQRPPDGYYYITVDVEMRMNGKERKYKFTIWIPSAG [r14_703_TrROS] | 4.17 ± 0.05 | 2.99 ± 0.072 | 3.75 ± 0.1
15 | SAMPVFTFPVEIPGPEYTPEEIVAILKEAAAKLNLPVDEEVIRELAEKALAEGTTVADIIEEILKRGLGSAG [r14_364_JUSTAS] | 1.88 ± 0.045 | 3.07 ± 0.094 | 2.52 ± 0.077
16 | SAMPVVTLKAKVTIHSDPNGIEEKEIEITVTFPDPNVGLEEAKKKAEEAIKEYAEKNGLKIELEEITIESAG [r14_190_JUSTAS] | 2.06 ± 0.047 | 1.19 ± 0.08 | 1.88 ± 0.09
17 | SAMRAAVLAAAEEITAHPEFEAVGISPDGTFLFRNPATGKVYRIRLEAEDDGEGVIVRVPSIEPLDAPDSAG [r14_20_TrMRF] | 1.92 ± 0.051 | 1.43 ± 0.028 | 1.75 ± 0.087
18 | SAMRILIEFDSPEEAEEALRKLVEEAGLVLEEIKVEIAPAKVTTTTPDGKKVTKTKYFALAEIKLSKKESAG [r14_773_TrMRF] | 2.19 ± 0.086 | 1.47 ± 0.067 | 2.12 ± 0.19
19 | SAMRPGDPWKPVEERKIPIRNPNNGKEIEIEVYRFKDDGMYMVSIHFPDGKSIQFMVPPGDVEEIIEQISAG [r14_240_TrROS] | 3.171 ± 0.016 | 1.29 ± 0.037 | 2.8 ± 0.058
20 | SAMSLTIETDGSLEDVIAALKAFLEANPNVPFIISPPNGEVKVIDLGLADKILVIPDPDGKVRITVINPSAG [r14_807_TrMRF] | 1.7 ± 0.024 | 1.76 ± 0.023 | 1.75 ± 0.036
21 | SAMSVTISFDPKGPGGTLTITADPNSPQIEKFINELKKKLNLDIKSYTKTILPNGTVKVTLTYSKINLPSAG [r14_655_JUSTAS] | 4.657 ± 0.028 | 4.05 ± 0.11 | 4.51 ± 0.083
